Source: patent US20090136509A1, “Use of Toll-Like Receptor 4 Antagonists for the Treatment or Prevention of Osteoarthritic Conditions” (priority 2007, published 2009)

What was measured:
[1] = target: T1, TLR4 (Homo sapiens, UniProt O00206+Q9Y6Y9); conditions: positive control; stated as known; cited from earlier work
T1 construct: alginate cultures of human chondrocytes from healthy volunteers were supplied by Articular Engineering, LLC; host or cells: primary human chondrocytes in alginate culture (healthy volunteers; osteoarthritis patients)

[2] = target: T1, TLR4; experiment: 35S incorporation into S-GAG in alginate cultures of human chondrocytes from healthy volunteers; assay type: cell-based
Procedure: For these experiments, alginate cultures of human chondrocytes from healthy volunteers were supplied by Articular Engineering, LLC (Northbrook, Ill.) and were maintained as directed by the supplier. “Control” chondrocytes were untreated. “LPS” treated chondrocytes were treated with LPS at a concentration of 1 μg/ml in the media for three days starting at Day 2. “LPS+polymixin B” treated chondrocytes were treated for 1 hour with the […] polymixin B, which is a TLR4 antagonist, at a concentration of 20 μg/ml followed by treatment with the TLR4 receptor agonist LPS at a concentration of 1 μg/ml in the media for three days starting at Day 2. “LPS+TLR4-ECD” treated chondrocytes were treated starting at Day 0 with the TLR4 antagonist TLR4-ECD at a concentration in the media of 50 μg/ml followed by treatment with LPS at a concentration of 1 μg/ml in the media for three days starting at Day 2. TLR4-ECD is a TLR4 receptor antagonist comprising the extracellular domain of hTLR4A and the Fc domain of an IgG1 isotype antibody. TLR4-ECD has the amino acid sequence shown in SEQ ID NO: 4 and is encoded by the cDNA having the nucleic acid sequence shown in SEQ ID NO: 3. […] On Day 5 alginate bead chondrocyte cell cultures were ^35S labelled overnight and ^35S incorporation into S-GAG (sulfated glycosaminoglycan) was then determined as described by Bobacz et al. 56 Arthritis. […]

[3] = target: T1, TLR4; experiment: 35S incorporation into S-GAG in alginate cultures of human chondrocytes from osteoarthritis patients; assay type: cell-based
Procedure: For these experiments, alginate cultures of human chondrocytes from healthy volunteers were supplied by Articular Engineering, LLC (Northbrook, Ill.) and were maintained as directed by the supplier. “Control” chondrocytes were untreated. “LPS” treated chondrocytes were treated with LPS at a concentration of 1 μg/ml in the media for three days starting at Day 2. “LPS+polymixin B” treated chondrocytes were treated for 1 hour with the […] polymixin B, which is a TLR4 antagonist, at a concentration of 20 μg/ml followed by treatment with the TLR4 receptor agonist LPS at a concentration of 1 μg/ml in the media for three days starting at Day 2. […] On Day 5 alginate bead chondrocyte cell cultures were ^35S labelled overnight and ^35S incorporation into S-GAG (sulfated glycosaminoglycan) was then determined as described by Bobacz et al. 56 Arthritis. […]
For these experiments, alginate cultures of human chondrocytes from osteoarthritis patients were supplied by Articular Engineering, LLC (Northbrook, Ill.) and were maintained as directed by the supplier. […] At Day 5 alginate bead chondrocyte cell cultures were ^35S labelled overnight and ^35S incorporation into S-GAG (sulfated glycosaminoglycan) was then determined as described by Bobacz et al. 56 Arthritis. […]

T1 sequence (O00206 24-839): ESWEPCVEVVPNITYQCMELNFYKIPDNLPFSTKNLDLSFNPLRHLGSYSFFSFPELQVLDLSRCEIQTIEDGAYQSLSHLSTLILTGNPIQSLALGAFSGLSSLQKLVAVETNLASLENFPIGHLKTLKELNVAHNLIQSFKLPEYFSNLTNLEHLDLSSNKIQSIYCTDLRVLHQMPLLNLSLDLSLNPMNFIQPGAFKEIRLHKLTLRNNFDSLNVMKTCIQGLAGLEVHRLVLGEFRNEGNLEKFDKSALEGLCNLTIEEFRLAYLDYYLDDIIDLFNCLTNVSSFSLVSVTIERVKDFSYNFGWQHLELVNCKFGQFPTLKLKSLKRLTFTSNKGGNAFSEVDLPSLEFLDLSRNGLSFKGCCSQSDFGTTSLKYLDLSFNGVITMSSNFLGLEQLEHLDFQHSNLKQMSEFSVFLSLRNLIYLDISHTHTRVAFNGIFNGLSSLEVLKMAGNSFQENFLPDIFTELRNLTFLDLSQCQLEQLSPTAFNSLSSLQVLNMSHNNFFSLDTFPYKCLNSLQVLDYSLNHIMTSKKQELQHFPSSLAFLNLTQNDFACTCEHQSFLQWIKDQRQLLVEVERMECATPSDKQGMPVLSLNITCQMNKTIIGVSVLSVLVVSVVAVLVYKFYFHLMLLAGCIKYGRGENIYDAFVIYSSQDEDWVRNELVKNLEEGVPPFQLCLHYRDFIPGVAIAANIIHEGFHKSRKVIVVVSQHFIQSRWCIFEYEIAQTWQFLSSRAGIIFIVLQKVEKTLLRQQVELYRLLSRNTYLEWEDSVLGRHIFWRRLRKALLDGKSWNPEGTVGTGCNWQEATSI
T1 sequence (Q9Y6Y9 17-160 limits assumed): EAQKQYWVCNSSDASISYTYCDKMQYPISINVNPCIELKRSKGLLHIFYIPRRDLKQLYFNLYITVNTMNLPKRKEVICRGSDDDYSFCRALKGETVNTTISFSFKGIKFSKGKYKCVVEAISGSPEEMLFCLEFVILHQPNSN

| Substance | sGAG synthesis by human chondrocytes [1] | S-GAG synthesis ([2]; hTLR4-ECD 50 μg/ml from Day 0 + LPS 1 μg/ml from Day 2, relative to LPS alone (FIG. 18)) | S-GAG synthesis ([2]; hTLR4-ECD alone 50 μg/ml from Day 0, relative to LPS alone (FIG. 18)) | S-GAG synthesis ([3]; hTLR4-ECD 50 μg/ml from Day 0 + LPS 1 μg/ml from Day 2, relative to LPS alone (FIG. 19)) | S-GAG synthesis ([3]; hTLR4-ECD alone 50 μg/ml from Day 0, relative to LPS alone (FIG. 19)) |
| --- | --- | --- | --- | --- | --- |
| IGF1: Insulin-like Growth Factor 1, used as a positive control | stimulate sGAG synthesis | – | – | – | – |
| hTLR4-ECD: TLR4 receptor antagonist comprising the extracellular domain of hTLR4A and the Fc domain of an IgG1 isotype antibody; preparations contained approximately 25% MD2 | – | increased S-GAG synthesis relative to chondrocytes treated with LPS alone | increased S-GAG synthesis relative to chondrocytes treated with LPS alone | increased S-GAG synthesis relative to chondrocytes from osteoarthritis patients treated with LPS alone | increased S-GAG synthesis relative to chondrocytes from osteoarthritis patients treated with LPS alone |
